# Target: Human CD137 ECD (human)
# Experiment: SPR, vs parent H183/L072
# Human CD137 ECD (human), sequence (chain, as listed by the source limits assumed): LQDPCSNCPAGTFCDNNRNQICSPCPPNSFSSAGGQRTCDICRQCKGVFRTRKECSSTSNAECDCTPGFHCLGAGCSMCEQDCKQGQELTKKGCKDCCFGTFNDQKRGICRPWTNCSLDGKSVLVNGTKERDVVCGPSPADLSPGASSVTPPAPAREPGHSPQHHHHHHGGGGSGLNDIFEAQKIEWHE
row,fold change of affinity [fold],Binder
1,0,"dBBDu183H V95Y / dBBDu072L (antibody, name in Kabat numbering, V domains shown) VH: QVQLVESGGGLVQPGRSLRLSCAASGFTFSNAWMHWVRQAPGKGLEWVAQIKDKGNAYAAYYAPSVKGRFTISRDDSKNSIYLQMNSLKTEDTAVYYCHYYHYASASTVLPAFGVDAWGQGTTVTVSS VL: DIVMTQSPLSLPVTPGEPASISCQASQELVHMNRNTYLHWYQQKPGQAPRLLIYKVSNRFPGVPDRFSGSGSGTDFTLKISRVEAEDVGVYYCAQGTSVPFTFGQGTKLEIK"
2,0,"dBBDu183H G100hY / dBBDu072L (antibody, name in Kabat numbering, V domains shown) VH: QVQLVESGGGLVQPGRSLRLSCAASGFTFSNAWMHWVRQAPGKGLEWVAQIKDKGNAYAAYYAPSVKGRFTISRDDSKNSIYLQMNSLKTEDTAVYYCHYVHYASASTVLPAFYVDAWGQGTTVTVSS VL: DIVMTQSPLSLPVTPGEPASISCQASQELVHMNRNTYLHWYQQKPGQAPRLLIYKVSNRFPGVPDRFSGSGSGTDFTLKISRVEAEDVGVYYCAQGTSVPFTFGQGTKLEIK"
3,0,"dBBDu183H A100fY / dBBDu072L (antibody, name in Kabat numbering, V domains shown) VH: QVQLVESGGGLVQPGRSLRLSCAASGFTFSNAWMHWVRQAPGKGLEWVAQIKDKGNAYAAYYAPSVKGRFTISRDDSKNSIYLQMNSLKTEDTAVYYCHYVHYASASTVLPYFGVDAWGQGTTVTVSS VL: DIVMTQSPLSLPVTPGEPASISCQASQELVHMNRNTYLHWYQQKPGQAPRLLIYKVSNRFPGVPDRFSGSGSGTDFTLKISRVEAEDVGVYYCAQGTSVPFTFGQGTKLEIK"
4,0,"dBBDu183H T100bY / dBBDu072L (antibody, name in Kabat numbering, V domains shown) VH: QVQLVESGGGLVQPGRSLRLSCAASGFTFSNAWMHWVRQAPGKGLEWVAQIKDKGNAYAAYYAPSVKGRFTISRDDSKNSIYLQMNSLKTEDTAVYYCHYVHYASASYVLPAFGVDAWGQGTTVTVSS VL: DIVMTQSPLSLPVTPGEPASISCQASQELVHMNRNTYLHWYQQKPGQAPRLLIYKVSNRFPGVPDRFSGSGSGTDFTLKISRVEAEDVGVYYCAQGTSVPFTFGQGTKLEIK"
5,0,"dBBDu183H V63Y / dBBDu072L (antibody, name in Kabat numbering, V domains shown) VH: QVQLVESGGGLVQPGRSLRLSCAASGFTFSNAWMHWVRQAPGKGLEWVAQIKDKGNAYAAYYAPSYKGRFTISRDDSKNSIYLQMNSLKTEDTAVYYCHYVHYASASTVLPAFGVDAWGQGTTVTVSS VL: DIVMTQSPLSLPVTPGEPASISCQASQELVHMNRNTYLHWYQQKPGQAPRLLIYKVSNRFPGVPDRFSGSGSGTDFTLKISRVEAEDVGVYYCAQGTSVPFTFGQGTKLEIK"
6,0,"dBBDu183H L100dY / dBBDu072L (antibody, name in Kabat numbering, V domains shown) VH: QVQLVESGGGLVQPGRSLRLSCAASGFTFSNAWMHWVRQAPGKGLEWVAQIKDKGNAYAAYYAPSVKGRFTISRDDSKNSIYLQMNSLKTEDTAVYYCHYVHYASASTVYPAFGVDAWGQGTTVTVSS VL: DIVMTQSPLSLPVTPGEPASISCQASQELVHMNRNTYLHWYQQKPGQAPRLLIYKVSNRFPGVPDRFSGSGSGTDFTLKISRVEAEDVGVYYCAQGTSVPFTFGQGTKLEIK"
7,0,"dBBDu183H P100eY / dBBDu072L (antibody, name in Kabat numbering, V domains shown) VH: QVQLVESGGGLVQPGRSLRLSCAASGFTFSNAWMHWVRQAPGKGLEWVAQIKDKGNAYAAYYAPSVKGRFTISRDDSKNSIYLQMNSLKTEDTAVYYCHYVHYASASTVLYAFGVDAWGQGTTVTVSS VL: DIVMTQSPLSLPVTPGEPASISCQASQELVHMNRNTYLHWYQQKPGQAPRLLIYKVSNRFPGVPDRFSGSGSGTDFTLKISRVEAEDVGVYYCAQGTSVPFTFGQGTKLEIK"
8,0,"dBBDu183H S100aY / dBBDu072L (antibody, name in Kabat numbering, V domains shown) VH: QVQLVESGGGLVQPGRSLRLSCAASGFTFSNAWMHWVRQAPGKGLEWVAQIKDKGNAYAAYYAPSVKGRFTISRDDSKNSIYLQMNSLKTEDTAVYYCHYVHYASAYTVLPAFGVDAWGQGTTVTVSS VL: DIVMTQSPLSLPVTPGEPASISCQASQELVHMNRNTYLHWYQQKPGQAPRLLIYKVSNRFPGVPDRFSGSGSGTDFTLKISRVEAEDVGVYYCAQGTSVPFTFGQGTKLEIK"
9,0,"dBBDu183H D101Y / dBBDu072L (antibody, name in Kabat numbering, V domains shown) VH: QVQLVESGGGLVQPGRSLRLSCAASGFTFSNAWMHWVRQAPGKGLEWVAQIKDKGNAYAAYYAPSVKGRFTISRDDSKNSIYLQMNSLKTEDTAVYYCHYVHYASASTVLPAFGVYAWGQGTTVTVSS VL: DIVMTQSPLSLPVTPGEPASISCQASQELVHMNRNTYLHWYQQKPGQAPRLLIYKVSNRFPGVPDRFSGSGSGTDFTLKISRVEAEDVGVYYCAQGTSVPFTFGQGTKLEIK"
10,0,"dBBDu183H V100iY / dBBDu072L (antibody, name in Kabat numbering, V domains shown) VH: QVQLVESGGGLVQPGRSLRLSCAASGFTFSNAWMHWVRQAPGKGLEWVAQIKDKGNAYAAYYAPSVKGRFTISRDDSKNSIYLQMNSLKTEDTAVYYCHYVHYASASTVLPAFGYDAWGQGTTVTVSS VL: DIVMTQSPLSLPVTPGEPASISCQASQELVHMNRNTYLHWYQQKPGQAPRLLIYKVSNRFPGVPDRFSGSGSGTDFTLKISRVEAEDVGVYYCAQGTSVPFTFGQGTKLEIK"
11,0,"dBBDu183H H93Y / dBBDu072L (antibody, name in Kabat numbering, V domains shown) VH: QVQLVESGGGLVQPGRSLRLSCAASGFTFSNAWMHWVRQAPGKGLEWVAQIKDKGNAYAAYYAPSVKGRFTISRDDSKNSIYLQMNSLKTEDTAVYYCYYVHYASASTVLPAFGVDAWGQGTTVTVSS VL: DIVMTQSPLSLPVTPGEPASISCQASQELVHMNRNTYLHWYQQKPGQAPRLLIYKVSNRFPGVPDRFSGSGSGTDFTLKISRVEAEDVGVYYCAQGTSVPFTFGQGTKLEIK"
12,0,"dBBDu183H A100Y / dBBDu072L (antibody, name in Kabat numbering, V domains shown) VH: QVQLVESGGGLVQPGRSLRLSCAASGFTFSNAWMHWVRQAPGKGLEWVAQIKDKGNAYAAYYAPSVKGRFTISRDDSKNSIYLQMNSLKTEDTAVYYCHYVHYASYSTVLPAFGVDAWGQGTTVTVSS VL: DIVMTQSPLSLPVTPGEPASISCQASQELVHMNRNTYLHWYQQKPGQAPRLLIYKVSNRFPGVPDRFSGSGSGTDFTLKISRVEAEDVGVYYCAQGTSVPFTFGQGTKLEIK"
13,0,"dBBDu183H A102Y / dBBDu072L (antibody, name in Kabat numbering, V domains shown) VH: QVQLVESGGGLVQPGRSLRLSCAASGFTFSNAWMHWVRQAPGKGLEWVAQIKDKGNAYAAYYAPSVKGRFTISRDDSKNSIYLQMNSLKTEDTAVYYCHYVHYASASTVLPAFGVDYWGQGTTVTVSS VL: DIVMTQSPLSLPVTPGEPASISCQASQELVHMNRNTYLHWYQQKPGQAPRLLIYKVSNRFPGVPDRFSGSGSGTDFTLKISRVEAEDVGVYYCAQGTSVPFTFGQGTKLEIK"
14,0,"dBBDu183H A98Y / dBBDu072L (antibody, name in Kabat numbering, V domains shown) VH: QVQLVESGGGLVQPGRSLRLSCAASGFTFSNAWMHWVRQAPGKGLEWVAQIKDKGNAYAAYYAPSVKGRFTISRDDSKNSIYLQMNSLKTEDTAVYYCHYVHYYSASTVLPAFGVDAWGQGTTVTVSS VL: DIVMTQSPLSLPVTPGEPASISCQASQELVHMNRNTYLHWYQQKPGQAPRLLIYKVSNRFPGVPDRFSGSGSGTDFTLKISRVEAEDVGVYYCAQGTSVPFTFGQGTKLEIK"

# Target: Human CD137 ECD (human)
# Experiment: single mutant vs template dBBDu183H
row,fold change of affinity [fold],Binder
1,0,"H183/L072 VH F29A (antibody, name in Kabat numbering, V domains shown) VH: QVQLVESGGGLVQPGRSLRLSCAASGFTASNAWMHWVRQAPGKGLEWVAQIKDKGNAYAAYYAPSVKGRFTISRDDSKNSIYLQMNSLKTEDTAVYYCHYVHYASASTVLPAFGVDAWGQGTTVTVSS VL: DIVMTQSPLSLPVTPGEPASISCQASQELVHMNRNTYLHWYQQKPGQAPRLLIYKVSNRFPGVPDRFSGSGSGTDFTLKISRVEAEDVGVYYCAQGTSVPFTFGQGTKLEIK"
2,0,"H183/L072 VH M34A (antibody, name in Kabat numbering, V domains shown) VH: QVQLVESGGGLVQPGRSLRLSCAASGFTFSNAWAHWVRQAPGKGLEWVAQIKDKGNAYAAYYAPSVKGRFTISRDDSKNSIYLQMNSLKTEDTAVYYCHYVHYASASTVLPAFGVDAWGQGTTVTVSS VL: DIVMTQSPLSLPVTPGEPASISCQASQELVHMNRNTYLHWYQQKPGQAPRLLIYKVSNRFPGVPDRFSGSGSGTDFTLKISRVEAEDVGVYYCAQGTSVPFTFGQGTKLEIK"
3,0,"H183/L072 VH D52aA (antibody, name in Kabat numbering, V domains shown) VH: QVQLVESGGGLVQPGRSLRLSCAASGFTFSNAWMHWVRQAPGKGLEWVAQIKAKGNAYAAYYAPSVKGRFTISRDDSKNSIYLQMNSLKTEDTAVYYCHYVHYASASTVLPAFGVDAWGQGTTVTVSS VL: DIVMTQSPLSLPVTPGEPASISCQASQELVHMNRNTYLHWYQQKPGQAPRLLIYKVSNRFPGVPDRFSGSGSGTDFTLKISRVEAEDVGVYYCAQGTSVPFTFGQGTKLEIK"
4,0,"H183/L072 VH W33A (antibody, name in Kabat numbering, V domains shown) VH: QVQLVESGGGLVQPGRSLRLSCAASGFTFSNAAMHWVRQAPGKGLEWVAQIKDKGNAYAAYYAPSVKGRFTISRDDSKNSIYLQMNSLKTEDTAVYYCHYVHYASASTVLPAFGVDAWGQGTTVTVSS VL: DIVMTQSPLSLPVTPGEPASISCQASQELVHMNRNTYLHWYQQKPGQAPRLLIYKVSNRFPGVPDRFSGSGSGTDFTLKISRVEAEDVGVYYCAQGTSVPFTFGQGTKLEIK"
5,0,"H183/L072 VH H35A (antibody, name in Kabat numbering, V domains shown) VH: QVQLVESGGGLVQPGRSLRLSCAASGFTFSNAWMAWVRQAPGKGLEWVAQIKDKGNAYAAYYAPSVKGRFTISRDDSKNSIYLQMNSLKTEDTAVYYCHYVHYASASTVLPAFGVDAWGQGTTVTVSS VL: DIVMTQSPLSLPVTPGEPASISCQASQELVHMNRNTYLHWYQQKPGQAPRLLIYKVSNRFPGVPDRFSGSGSGTDFTLKISRVEAEDVGVYYCAQGTSVPFTFGQGTKLEIK"
6,0,"H183/L072 VH Q50A (antibody, name in Kabat numbering, V domains shown) VH: QVQLVESGGGLVQPGRSLRLSCAASGFTFSNAWMHWVRQAPGKGLEWVAAIKDKGNAYAAYYAPSVKGRFTISRDDSKNSIYLQMNSLKTEDTAVYYCHYVHYASASTVLPAFGVDAWGQGTTVTVSS VL: DIVMTQSPLSLPVTPGEPASISCQASQELVHMNRNTYLHWYQQKPGQAPRLLIYKVSNRFPGVPDRFSGSGSGTDFTLKISRVEAEDVGVYYCAQGTSVPFTFGQGTKLEIK"
7,0,"H183/L072 VH K52A (antibody, name in Kabat numbering, V domains shown) VH: QVQLVESGGGLVQPGRSLRLSCAASGFTFSNAWMHWVRQAPGKGLEWVAQIADKGNAYAAYYAPSVKGRFTISRDDSKNSIYLQMNSLKTEDTAVYYCHYVHYASASTVLPAFGVDAWGQGTTVTVSS VL: DIVMTQSPLSLPVTPGEPASISCQASQELVHMNRNTYLHWYQQKPGQAPRLLIYKVSNRFPGVPDRFSGSGSGTDFTLKISRVEAEDVGVYYCAQGTSVPFTFGQGTKLEIK"
